Biological target: T1, TNFR1 (Homo sapiens, UniProt P19438)
T1 chain: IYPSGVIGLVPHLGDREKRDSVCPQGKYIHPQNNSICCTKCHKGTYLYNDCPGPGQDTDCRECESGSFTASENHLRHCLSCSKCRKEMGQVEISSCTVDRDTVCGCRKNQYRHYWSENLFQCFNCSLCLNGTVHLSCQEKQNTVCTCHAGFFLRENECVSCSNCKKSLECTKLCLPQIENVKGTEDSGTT
Test: yeast display SC50

Binder	apparent Kd (screen) [nM]
L38G (designed binder) MTLQELLREEALRRAEAEAFRYALELLAEKFPEQKEYGLDLAEEIESQIRSLSGVDVEDVRKFLDKEWAWVKELLAEHPAELAEVEAARAARLAELRAEVEAKVAA	24.4
A106E (designed binder) MTLQELLREEALRRAEAEAFRYALELLAEKFPEQKEYLLDLAEEIESQIRSLSGVDVEDVRKFLDKEWAWVKELLAEHPAELAEVEAARAARLAELRAEVEAKVAE	0.79
R14F (designed binder) MTLQELLREEALRFAEAEAFRYALELLAEKFPEQKEYLLDLAEEIESQIRSLSGVDVEDVRKFLDKEWAWVKELLAEHPAELAEVEAARAARLAELRAEVEAKVAA	0.653
I45R (designed binder) MTLQELLREEALRRAEAEAFRYALELLAEKFPEQKEYLLDLAEERESQIRSLSGVDVEDVRKFLDKEWAWVKELLAEHPAELAEVEAARAARLAELRAEVEAKVAA	11.4
E95R (designed binder) MTLQELLREEALRRAEAEAFRYALELLAEKFPEQKEYLLDLAEEIESQIRSLSGVDVEDVRKFLDKEWAWVKELLAEHPAELAEVEAARAARLARLRAEVEAKVAA	0.593
E43P (designed binder) MTLQELLREEALRRAEAEAFRYALELLAEKFPEQKEYLLDLAPEIESQIRSLSGVDVEDVRKFLDKEWAWVKELLAEHPAELAEVEAARAARLAELRAEVEAKVAA	1.16
I45M (designed binder) MTLQELLREEALRRAEAEAFRYALELLAEKFPEQKEYLLDLAEEMESQIRSLSGVDVEDVRKFLDKEWAWVKELLAEHPAELAEVEAARAARLAELRAEVEAKVAA	12.5
D56K (designed binder) MTLQELLREEALRRAEAEAFRYALELLAEKFPEQKEYLLDLAEEIESQIRSLSGVKVEDVRKFLDKEWAWVKELLAEHPAELAEVEAARAARLAELRAEVEAKVAA	2.25
E29T (designed binder) MTLQELLREEALRRAEAEAFRYALELLATKFPEQKEYLLDLAEEIESQIRSLSGVDVEDVRKFLDKEWAWVKELLAEHPAELAEVEAARAARLAELRAEVEAKVAA	0.653
P79D (designed binder) MTLQELLREEALRRAEAEAFRYALELLAEKFPEQKEYLLDLAEEIESQIRSLSGVDVEDVRKFLDKEWAWVKELLAEHDAELAEVEAARAARLAELRAEVEAKVAA	0.539
A87I (designed binder) MTLQELLREEALRRAEAEAFRYALELLAEKFPEQKEYLLDLAEEIESQIRSLSGVDVEDVRKFLDKEWAWVKELLAEHPAELAEVEIARAARLAELRAEVEAKVAA	0.869
A88C (designed binder) MTLQELLREEALRRAEAEAFRYALELLAEKFPEQKEYLLDLAEEIESQIRSLSGVDVEDVRKFLDKEWAWVKELLAEHPAELAEVEACRAARLAELRAEVEAKVAA	0.653
D59H (designed binder) MTLQELLREEALRRAEAEAFRYALELLAEKFPEQKEYLLDLAEEIESQIRSLSGVDVEHVRKFLDKEWAWVKELLAEHPAELAEVEAARAARLAELRAEVEAKVAA	0.869
L12A (designed binder) MTLQELLREEAARRAEAEAFRYALELLAEKFPEQKEYLLDLAEEIESQIRSLSGVDVEDVRKFLDKEWAWVKELLAEHPAELAEVEAARAARLAELRAEVEAKVAA	0.79

— article PMC12416549 (2024)
